Data from patent US20230085439A1 (UNIVERSITY OF GEORGIA RESEARCH FOUNDATION, published 2023).
Like-named read-outs stand apart in the source and are kept apart here.

B1: MPV364 (antibody, V domains shown)
VH: QVQLVQSGAEVKKPGASVKVSCKASGYTFTHDSIHWVRQAPGQRLEWMGWINVGNGDTKSSQKFQDRLTITRDTSANTAYMEVRSLKYEDTAMYFCARVDQYCIGGVCYGGKNWFDPWGQGTLVTVSS
VL: SYELNQPPSVSVAPGQTAMITCGGYYVGVKSLHWYQQKAGQAPVLVVHDDSDRPSGIPERFSGSKSGDTATLIISRVEAGDEADYYCQVWDRDSDHPYVFGTGTTVTVL
notes: also called mAb MPV364; hMPV364
B2: MPV196 (antibody, V domains shown)
VH: QVQLQQWGAGLLKPSETLSLTCAVYGGSFSGYSWTWIRQPPGKGLEWIGEINHSGSTNYNPSLKSRVTISIDTSRNQFSLKLISVTAADTAVYYCARGVRGGYNLWHFDVWGQGTLVTVSS
VL: SYELSQSPSVSVSPGQTARITCSGDKLGNKYASWYQQKPGQSPVLVIYQDDKRPSGIPERFSGSNSGNTATLTIGGTQAMDEADYSCQAWDGRTAVVFGGGTKLTVL
notes: also called mAb MPV196
B3: MPV458 (antibody, V domains shown)
VH: QGKLVESGGGVIQPGRSLRLSCAASGFDFSRYGLHWVRQAPGKGLEWVAVIVYAGSNKYYADSVKGRFTISKDNSKNTMHLQMSDLRTEDTAVYYCARDQAFDLWGQGTMVTVSS
VL: DIQMTQSPASLSASVGDRVTITCQASQGISRSVNWYQQKPGKAPKLLIFDASHLERGVPSRFSGSGYGTDFTFTISSLQPEDIATYYCQQYDNLRISFGQGTRLEIK
notes: also called mAb MPV458; MPV458 IgG
B4: MPV314 (antibody, V domains shown)
VH: QVQLVQSGGGVVQPGRSLRLSCAASGFSFSDYGMDWVRQAPGKGLEWVAVISYDGSNQYYADSVKGRFTVSRDNSKNTVYLQMNSLRAEDTAVYFCAKDESRRYYYSSGIHSHWGQGTLVTVSS
VL: DIVMTQSPATLSVSPGERATLSCRASQSVSRNLAWYQQKPGQAPRLLIFGASTRATGIPARFSGSASGTEFTLTISSLQSEDFAVYYCHQYNYWPPGTFGQGTRLEIK
notes: also called mAb MPV314
B5: MPV201 (antibody, V domains shown)
VH: QVQLVQSGGGGVQPGRSLRLSCAASGFIFSDYGMHWVRQAPGKGLEWVAVISYDGSNQYYADSVKGRFTISRDNSRNTLYLQMNSLRVEDTAVYYCAKDQGRRYYYSSGYLDYWGQGTLVTVSS
VL: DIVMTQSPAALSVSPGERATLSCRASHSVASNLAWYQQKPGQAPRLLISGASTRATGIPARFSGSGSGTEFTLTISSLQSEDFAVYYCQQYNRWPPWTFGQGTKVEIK
notes: also called mAb MPV201
B6: MPE8 (antibody, V domains shown)
VH: EVQLVESGGGLVKPGGSLRLSCAASGFTFSSYSMNWVRQAPGKGLEWVSSISASSSYSDYADSAKGRFTISRDNAKTSLFLQMNSLRAEDTAIYFCARARATGYSSITPYFDIWGQGTLVTVSS
VL: QSVVTQPPSVSGAPGQRVTISCTGSSSNIGAGYDVHWYQQLPGTAPKLLIYDNNNRPSGVPDRFSASKSGTSASLAITGLQAEDEADYYCQSYDRSLSGVFGTGTKVTVL
notes: also called mAb MPE8; MPE8 antibody

Assays:
[1] = biological target: T1, hMPV B1 F (human metapneumovirus); assay: ELISA on coated antigen, mAb titrated; EC50 box, key 3
[2] = biological target: hMPV F protein of hMPV B2 strain TN/93-32 (human metapneumovirus); assay: cell-based or functional assay
[3] = biological target: hMPV F protein of hMPV A2 strain CAN/97-83 (human metapneumovirus, UniProt Q6WB98 19-539); assay: cell-based or functional assay
[4] = biological target: T2, hMPV A2 F (human metapneumovirus); assay: ELISA on coated antigen, mAb titrated; EC50 box, key 2
[5] = biological target: T3, hMPV A1 F (human metapneumovirus); assay: ELISA on coated antigen, mAb titrated; EC50 box, key 1
[6] = biological target: T4, hMPV 130-BV (human metapneumovirus); assay: ELISA on coated antigen, mAb titrated; EC50 list entry 5 of 7 (marker of hMPV 130BV)
T4 construct: also called hMPV 130-BV F; hMPV F 130-BV

[7] = biological target: hMPV B2 F GCN4
[8] = biological target: T3, hMPV A1 F
[9] = biological target: T5, hMPV B2 F (human metapneumovirus)
[10] = biological target: T2, hMPV A2 F
[11] = biological target: T1, hMPV B1 F
[12] = biological target: hMPV B2 F-GCN4 dFP 6R (human metapneumovirus)
[13] = biological target: T6, trimeric hMPV B2 F protein treated with trypsin (human metapneumovirus); assay: ELISA on coated antigen, mAb titrated; panel hMPV B2 F trimer (trypsin), key 1
[14] = biological target: T7, monomeric hMPV B2 F protein treated with trypsin (human metapneumovirus); assay: ELISA on coated antigen, mAb titrated; panel hMPV B2 F monomer (trypsin), key 1
[15] = biological target: T5, hMPV B2 F; assay: ELISA on coated antigen, mAb titrated; EC50 box, key 4
[16] = biological target: T6, trimeric hMPV B2 F protein treated with …; assay: ELISA on coated antigen, mAb titrated; panel hMPV B2 F trimer (trypsin), key 2
[17] = biological target: T7, monomeric hMPV B2 F protein treated …; assay: ELISA on coated antigen, mAb titrated; panel hMPV B2 F monomer (trypsin), key 2
[18] = biological target: T7, monomeric hMPV B2 F protein treated …; assay: ELISA on trypsin-treated monomeric and trimeric hMPV B2 F

| Binder | EC50 [1] [µg/mL] | IC50, plaque neutralization [2] [µg/mL] | IC50, plaque neutralization [3] [µg/mL] | EC50 [4] [µg/mL] | EC50 [5] [µg/mL] | EC50 [6] [µg/mL] | EC50 [7] [µg/mL] | EC50 [8] [µg/mL] | EC50 [9] [µg/mL] | EC50 [10] [µg/mL] | EC50 [11] [µg/mL] | EC50 [12] [µg/mL] | EC50 [13] [µg/mL] | EC50 [14] [µg/mL] | EC50 [15] [µg/mL] | EC50 [16] [µg/mL] | EC50 [17] [µg/mL] | 50% inhibitory concentration (IC50), plaque neutralization [2] [µg/mL] | 50% inhibitory concentration (IC50), plaque neutralization [3] [µg/mL] | fold EC50, monomeric against trimeric hMPV B2 F [18] [fold lower] |
| --- | --- | --- | --- | --- | --- | --- | --- | --- | --- | --- | --- | --- | --- | --- | --- | --- | --- | --- | --- | --- |
| B1 | 0.2 | 0.018 | 0.008 | 0.44 | 0.25 | – | – | – | – | – | – | – | – | – | – | – | – | – | – | – |
| B2 | 0.077 | – | – | 0.204 | 0.15 | 0.14 | 0.18 | 0.27 | 0.44 | 0.17 | 0.12 | 0.15 | 0.17 | 0.091 | 0.136 | – | – | – | – | – |
| B3 | – | – | – | – | – | 0.24 | 0.2 | 0.75 | 0.6 | 0.39 | 0.39 | 0.37 | – | – | – | 0.9 | 0.25 | 0.49 | 0.033 | ~4 |
| B4 | 0.039 | – | – | 0.102 | 0.096 | – | – | – | – | – | – | – | – | – | – | – | – | – | – | – |
| B5 | 0.042 | – | – | 0.14 | 0.104 | – | – | – | – | – | – | – | – | – | 0.089 | – | – | – | – | – |
| B6 | – | – | – | – | – | 1.8 | 4.7 | 14 | 36 | 4.3 | 3.1 | 5.9 | – | – | – | – | – | – | – | – |
